± gives the standard deviation of the averaged measurements.
system: ATP; test: switch fluorescence ratio, 500 uM ATP over buffer (Cy3 cluster intensity, sum of 5 cycles each) (fold (ratio)); higher = stronger signal-on switching upon ATP binding; sequences stand for … in TCGTCGGCAGCGTCAGATGTGTATAAGAGACAGTTTTTTTTTTTTTTTTTTTTTTTTT…TC; details: aptamer strand: ATP DNA aptamer (quencher-CACCTGGGGGAGTATTGCGGAGGAAGG + anchor), 100 nM annealed; ATP concentration: 500 uM
How it was run: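 For every switch-domain sequence, the fluorescence ratio is the mean of per-cluster values, each being summed target-cycle Cy3 intensity over summed buffer-cycle Cy3 intensity. Clusters outside 100-1000 RFU were excluded. On a modified Illumina MiSeq flow-cell, the Cy3-labelled switching-strand clusters were annealed to 100 nM quencher-labelled ATP aptamer, imaged in selection buffer and then after 15 min with 500 uM ATP at 22 °C. Five such cycles were run, with NaOH stripping and re-annealing between them.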
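Note: ATP exposure 15 min at 22 °C before imaging.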

| Sequence | switch fluorescence ratio |
| --- | --- |
| AAATAACTGA | 0.994 ± 0.029 |
| AAATAAGTGA | 0.979 ± 0.013 |
| AAATACGGTG | 1.17 ± 0.16 |
| AAATATACGA | 1.16 ± 0.15 |
| AAATATATGT | 0.997 ± 0.046 |
| AAATATGGTT | 1.02 ± 0.035 |
| AAATCACGTA | 1.1818 ± 4.2e-05 |
| AAATCGATGT | 1 ± 0.02 |
| AAATCGGCTC | 0.989 ± 0.025 |
| AAATCTCATC | 1.03 ± 0.014 |
| AAATGAAGGG | 1 ± 0.058 |
| AAATGACGGG | 1.005 ± 0.0076 |
| AAATGAGTAG | 1.02 ± 0.013 |
| AAATGAGTTT | 1.02 ± 0.013 |
| AAATGATAAG | 0.998 ± 0.021 |
| AAATGCTATA | 1.01 ± 0.022 |
| AAATGCTTCA | 1.03 ± 0.019 |
| AAATGCTTTA | 1.03 ± 0.022 |
| AAATGGCCAC | 1.01 ± 0.035 |
| AAATGGGACC | 1.012 ± 0.0042 |
| AAATGGGCTG | 1 ± 0.09 |
| AAATGGTACT | 1.01 ± 0.035 |

| Sequence | switch fluorescence ratio |
| --- | --- |
| AAATGGTCT | 1.016 ± 0.01 |
| AAATGTAAGG | 0.99 ± 0.034 |
| AAATGTGGAG | 0.984 ± 0.021 |
| AAATGTTAAG | 1.01 ± 0.032 |
| AAATGTTTGC | 1.01 ± 0.018 |
| AAATTAAGGA | 1.01 ± 0.031 |
| AAATTAATCC | 1.04 ± 0.038 |
| AAATTAATTG | 1.02 ± 0.036 |
| AAATTACATT | 1.02 ± 0.021 |
| AAATTATCCA | 1.016 ± 0.0092 |
| AAATTCGACG | 1.05 ± 0.046 |
| AAATTTAGGT | 1.01 ± 0.038 |
| AAATTTCATA | 1.03 ± 0.01 |
| AAATTTGGTG | 1.14 ± 0.14 |
| AAATTTTAGG | 1.034 ± 0.0013 |
| AAATTTTTAG | 1.02 ± 0.018 |
| AAATTTTTGC | 1.05 ± 0.015 |
| AAATTTTTGT | 1.001 ± 0.0065 |
| AACAAACGGT | 1.36 ± 0.057 |
| AACAAATGGG | 1.02 ± 0.052 |
| AACAAGGGGA | 1.07 ± 0.067 |
| AACAAGTATG | 1 ± 0.044 |

| Sequence | switch fluorescence ratio |
| --- | --- |
| AACAATTATA | 1.011 ± 0.0078 |
| AACACGGCTG | 1.05 ± 0.027 |
| AACACTGATT | 1.04 ± 0.026 |
| AACAGCCACA | 1.11 ± 0.028 |
| AACAGGATGC | 1.027 ± 0.0039 |
| AACAGGGGCT | 1.09 ± 0.12 |
| AACAGTGATA | 1.01 ± 0.027 |
| AACAGTGTAG | 1 ± 0.013 |
| AACAGTTCTG | 0.986 ± 0.027 |
| AACAGTTTGT | 1 ± 0.017 |
| AACATAGTAG | 0.96446 ± 0.0004 |
| AACATGCGCA | 0.9712 ± 0.0047 |
| AACATTTTAA | 0.965 ± 0.04 |
| AACATTTTTG | 0.998 ± 0.026 |
| AACCAATCGA | 1.04 ± 0.05 |
| AACCATGGGT | 1.01 ± 0.03 |
| AACCCGGATT | 0.9958 ± 0.0035 |
| AACCGGTGCA | 1.08 ± 0.017 |
| AACCGTGGCG | 1.07 ± 0.041 |
| AACCTCTTAG | 0.992 ± 0.026 |
| AACCTGCTAA | 1.057 ± 0.0014 |
| AACCTGTCGG | 1.01 ± 0.028 |

| Sequence | switch fluorescence ratio |
| --- | --- |
| AACGAAGATT | 1.01 ± 0.019 |
| AACGAATAAA | 0.994 ± 0.025 |
| AACGACCCCC | 1.74 ± 0.31 |
| AACGAGACCA | 1.07 ± 0.052 |
| AACGAGAGGG | 1.04 ± 0.035 |
| AACGAGTGTG | 1.01 ± 0.052 |
| AACGATAAAT | 1.03 ± 0.014 |
| AACGATAGCA | 1.08 ± 0.016 |
| AACGATTGGG | 0.948 ± 0.027 |
| AACGGAACTA | 1.15 ± 0.019 |
| AACGGACAAA | 1.2 ± 0.052 |
| AACGGACGGC | 1.48 ± 0.098 |
| AACGGCAGGT | 1.03 ± 0.013 |
| AACGGCAGTG | 1.03 ± 0.022 |
| AACGGCGCTA | 1.045 ± 0.0057 |
| AACGGGACCT | 1.33 ± 0.081 |
| AACGGGATAT | 1.09 ± 0.0021 |
| AACGGGATGG | 1.02 ± 0.036 |
| AACGGGGATA | 1.049 ± 0.0065 |
